The experiment deals with SerRS (full-length human seryl-tRNA synthetase) (human) (UniProt P49591).
SerRS (full-length human seryl-tRNA synthetase) (human), sequence (P49591 whole entry): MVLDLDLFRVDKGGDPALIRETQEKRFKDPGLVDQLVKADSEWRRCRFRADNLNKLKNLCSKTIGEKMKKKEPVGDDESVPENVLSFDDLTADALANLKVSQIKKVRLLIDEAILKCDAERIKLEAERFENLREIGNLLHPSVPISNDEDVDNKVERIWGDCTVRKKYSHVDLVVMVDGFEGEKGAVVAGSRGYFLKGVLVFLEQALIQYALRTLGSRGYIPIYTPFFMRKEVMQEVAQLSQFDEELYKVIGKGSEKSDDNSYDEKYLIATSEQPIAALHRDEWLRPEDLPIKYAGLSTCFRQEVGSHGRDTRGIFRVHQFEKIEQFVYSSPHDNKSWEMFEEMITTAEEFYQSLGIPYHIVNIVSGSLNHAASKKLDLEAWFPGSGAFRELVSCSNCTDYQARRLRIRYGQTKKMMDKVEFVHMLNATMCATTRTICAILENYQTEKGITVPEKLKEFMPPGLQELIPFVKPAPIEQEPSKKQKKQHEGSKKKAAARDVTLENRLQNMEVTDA

Consider “METTL6 (full-length human m^3C tRNA methyltransferase) (from UniProt Q8TCB7 1-284) (enzyme)”, for which the in vitro methyltransferase activity of METTL6 on tRNA^SerUGA after adding SerRS (^3H-SAM incorporation) came out at 1000 fold.
